This assay deals with primary mouse OPs. Put plainly: Proliferation of oligodendrocyte precursor (OP) cultures, scoring NG2+ and NG2+/BrdU+ cells. Conditions: TLQP-21 3 μM, AQEE-30 3 μM, BDNF 50 ng/μl, analyzed 48 hours later, vs DMSO. The assay is classed as cell-based. On the procedure:
The growth factor VGF was of particular interest because it is reported to be highly expressed in OPs. Furthermore, its upregulation upon exercise activates the anti-depressant response in mammals, and maintains BDNF expression in a VGF-BDNF positive feedback loop. […] VGF is cleaved to produce numerous C-terminal bioactive peptides including TLQP-62, TLQP-21, and AQEE-30, amongst others. As such, oligodendrocyte precursor (OP) cultures were treated with well-characterized peptides that trigger BDNF production TLQP-21 (3 μM), AQEE-30 (3 μM), BDNF (50 ng/μl), or DMSO along with the proliferation marker BrdU and then analyzed 48 hours later by scoring the number of NG2+/BrdU+ cells. In parallel, the total number of NG2+ cells was counted to assess for endogenous proliferation. […] Indeed, VGF protein levels are robust early in the OP differentiation cascade (FIG. 11).
Mouse OPs were isolated from the cortices of PO WT neonates by expansion within mixed glial culture for 8 days, purified, and subsequently differentiated as an OP-enriched culture. At DIV1 post-purification, cells were treated with DMSO, BDNF, VGF AQEE-30 or VGF TLQP-21 at 3 uM and allowed to grow for an additional 48 hrs. […] DAPI stains all nuclei. […] Scale bar, […]. FIG. 10C depicts quantitation of the average dendritic length 48 hrs post-peptide treatment. **P<0.01, n=4 independent coverslips per condition. […]

B1: BDNF: brain-derived neurotrophic factor, comparison treatment in OP cultures (protein, UniProt P23560 19-247, looked up)
Neurotrophic factor BDNF …: APMKEANIRGQGGLAYPGVRTHGTLESVNGPKAGSRGLTSLADTFEHVIEELLDEDQKVRPNEENNKDADLYTSRVMLSSQVPLEPPLLFLLEEYKNYLDAANMSMRVRRHSDPARRGELSVCDSISEWVTAADKKTAVDMSGGTVTVLEKVPVSKGQLKQYFYETKCNPMGYTKEGCRGIDKRHWNSQCRTTQSYVRALTMDSKKRIGWRFIRIDTSCVCTLTIKRGR
For B1, the “total number of NG2+ cells” value is listed as “no significant differences”. For the same molecule, the “total number of proliferating Ng2+/BrdU+ OPs” value (with BrdU) is listed as “no significant differences”.

These data come from US20170028021A1, “COMPOSITIONS AND METHODS FOR TREATING NEURODEGENERATIVE DISEASE” (MYELIN THERAPEUTICS, INC., priority 2015, published 2017).
